KD with 4-M-HMBPP, N with 4-M-HMBPP and dH with 4-M-HMBPP data for one substance are collected here from paper PMC10665462.

The target of the experiment is BTN3A1 full intracellular domain (human). The experiment is described as follows: ITC; nanoITC; 300 μM BTN2A1 ID271 titrated into a mixture of 60 μM BTN3A1 BFI and 120 μM 4-M-HMBPP; independent fit (NanoAnalyze). In general terms: In ITC the heat of successive injections is recorded.

On to “BTN2A1 intracellular domain (domain or fragment)”, for which the KD with 4-M-HMBPP worked out at 190 µM, the N with 4-M-HMBPP was found to be 0.08 and the dH with 4-M-HMBPP is -23.9 kcal/mol.
